Test results as given in patent US20250283153 (published 2025).

Molecular target: Thrombin (human alpha-thrombin) (Homo sapiens, UniProt P00734;P00734 P00734:328-363,P00734:364-622)
Experiment: nanopore without motor protein; lower-current events with increasing thrombin concentration

B1: 29-mer thrombin-binding aptamer (TBA) with 30xT threading strand (ssDNA)
DNA: TTTTTTTTTTTTTTTTTTTTTTTTTTTTTTAGTCCGTGGTAGGGCAGGTTGGGGTGACT
B1: binds.
